In publication PMC4380364:
pIC50: −log10 of the molar value.

Columns and labels:
[1] = biological target: T1, L-selectin (cell surface, Jurkat T lymphocytes) (Homo sapiens?) (UniProt P14151); experiment: flow cytometry titration; settings: FITC-labeled, Jurkat cells, competition with 100 nM FITC-DREG56 for 35 min at 4°C, washed in PBS, 2% PFA fix, SLeX assay in PBS with 1% human serum albumin …, scale: apparent affinity relative to LS-Multi-Aptamer
T1 sequence: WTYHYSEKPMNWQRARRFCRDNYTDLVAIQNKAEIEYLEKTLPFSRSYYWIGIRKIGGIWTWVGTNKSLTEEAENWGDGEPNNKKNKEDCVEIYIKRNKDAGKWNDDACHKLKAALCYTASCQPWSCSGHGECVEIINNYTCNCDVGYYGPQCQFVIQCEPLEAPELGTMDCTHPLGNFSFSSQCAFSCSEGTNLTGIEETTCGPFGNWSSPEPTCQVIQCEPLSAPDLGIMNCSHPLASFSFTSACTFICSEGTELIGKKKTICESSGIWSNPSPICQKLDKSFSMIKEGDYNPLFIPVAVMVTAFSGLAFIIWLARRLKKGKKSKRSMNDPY

[2] = biological target: T1, L-selectin (cell surface, Jurkat T lymphocytes); experiment: competition (flow cytometry); settings: vs 100 nM FITC-DREG56 antibody, 4°C, Jurkat cells, competition with 100 nM FITC-DREG56 for 35 min at 4°C, washed in PBS, 2% PFA fix, SLeX assay in PBS with 1% human serum albumin …

Sequence: TAGCCAAGGTAACCAGTACAAGGTGCTAAACGTAATGGCTTCGGCTTAC [LS-Aptamer (monovalent)]
- binding signal [1]: 0.001
- pIC50 [2]: < 6.00
